Patent US20020146805

T1: Suc-Ala-Ala-Pro-Phe-pNA
T1 chain: AAPF

T2: Meo-Suc-Ala-Ala-Pro-Val-pNA
T2 chain: AAPV

T3: H-D-Pro-HHT-Arg-pNA
T3 chain: PXR

T4: H-D-Lys(CBO)-Pro-Arg-pNA
T4 chain: KPR

B1: PFEK-protease T-6xHIS zymogen (protein)
chain: MDSKGSSQKSRLLLLLVVSNLLLCQGVVSDYKDDDDVDAAALAAPFDDDDKIVGGYALEEGEWPWQVSIQRNGSHFCGGSLIAEQWVLTAAHCFRNTSETSLYQVLLGARQLVQPGPHAMYARVRQVESNPLYQGTASSADVALVELEAPVPFTNYILPVCLPDPSVIFETGMNCWVTGWGSPSEEDLLPEPRILQKLAVPIIDTPKCNLLYSKDTEFGYQPKTIKNDMLCAGFEEGKKDACKGDSGGPLVCLVGQSWLQAGVISWGEGCARQNRPGVYIRVTAHHNWIHRIIPKLQFQPARLGGQKSRHHHHHH
B2: activated protease T-6xHIS (protein)
chain: B1 chain

Assays:
Suc-Ala-Ala-Pro-Phe-pNA = biological target: T1, Suc-Ala-Ala-Pro-Phe-pNA
[1] = biological target: T2, Meo-Suc-Ala-Ala-Pro-Val-pNA
H-D-Pro-HHT-Arg-pNA = biological target: T3, H-D-Pro-HHT-Arg-pNA
H-D-Lys(CBO)-Pro-Arg-pNA = biological target: T4, H-D-Lys(CBO)-Pro-Arg-pNA

| Protein | chromogenic amidolytic activity (Suc-Ala-Ala-Pro-Phe-pNA) | chromogenic amidolytic activity [1] | chromogenic amidolytic activity (H-D-Pro-HHT-Arg-pNA) | chromogenic amidolytic activity (H-D-Lys(CBO)-Pro-Arg-pNA) | Specific Activity (amidolytic, release of pNA) (nmole pNA produced/min/ug protein) (H-D-Pro-HHT-Arg-pNA) | Specific Activity (amidolytic, release of pNA) (nmole pNA produced/min/ug protein) (H-D-Lys(CBO)-Pro-Arg-pNA) |
| --- | --- | --- | --- | --- | --- | --- |
| B1 | No measurable chromogenic amidolytic activity was detected | No measurable chromogenic amidolytic activity was detected | No measurable chromogenic amidolytic activity was detected | No measurable chromogenic amidolytic activity was detected |  |  |
| B2 |  |  |  |  | 0.01 | 0.057 |
